Measured values reported in IntAct's records for PubMed 20124439.

B1: Glycosylphosphatidylinositol-anchored high density lipoprotein-binding protein 1 (Homo sapiens), Q8IV16 (parent)
chain: MKALGAVLLALLLFGRPGRGQTQQEEEEEDEDHGPDDYDEEDEDEVEEEETNRLPGGRSRVLLRCYTCKSLPRDERCNLTQNCSHGQTCTTLIAHGNTESGLLTTHSTWCTDSCQPITKTVEGTQVTMTCCQSSLCNVPPWQSSRVQDPTGKGAGGPRGSSETVGAALLLNLLAGLGAMGARRP
partner: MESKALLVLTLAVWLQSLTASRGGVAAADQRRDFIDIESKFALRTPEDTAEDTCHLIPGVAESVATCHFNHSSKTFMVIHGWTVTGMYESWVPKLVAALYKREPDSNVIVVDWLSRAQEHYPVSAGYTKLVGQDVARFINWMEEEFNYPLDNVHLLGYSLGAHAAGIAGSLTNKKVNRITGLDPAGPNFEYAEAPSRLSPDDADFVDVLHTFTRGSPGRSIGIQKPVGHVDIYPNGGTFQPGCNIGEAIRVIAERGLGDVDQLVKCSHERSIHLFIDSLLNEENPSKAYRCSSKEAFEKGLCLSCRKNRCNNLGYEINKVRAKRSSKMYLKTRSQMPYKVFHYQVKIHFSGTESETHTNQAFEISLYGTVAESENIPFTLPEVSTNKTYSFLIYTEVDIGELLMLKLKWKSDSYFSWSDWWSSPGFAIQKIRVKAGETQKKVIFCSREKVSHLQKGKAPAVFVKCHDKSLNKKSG

Variants of: B1
Conditions: with lipl_human LPL

effect of a mutation on the interaction | Variant
decreasing interaction | MKALGAVLLALLLFGRPGRGQTQQEEEEEDEDHGPDDYDEEDEDEVEEEETNRLPGGRSRVLLRCYTCKSLPRDERCNLTQNCSHGQTCTTLIAHGNTESGLLTTHSTWCTDSCPPITKTVEGTQVTMTCCQSSLCNVPPWQSSRVQDPTGKGAGGPRGSSETVGAALLLNLLAGLGAMGARRP [Q115P]
decreasing interaction | MKALGAVLLALLLFGRPGRGQTQQEEEEEDEDHGPDDYDEEDEDEVEEEETNRLPGGRSRVLLRYYTCKSLPRDERCNLTQNCSHGQTCTTLIAHGNTESGLLTTHSTWCTDSCQPITKTVEGTQVTMTCCQSSLCNVPPWQSSRVQDPTGKGAGGPRGSSETVGAALLLNLLAGLGAMGARRP [C65Y]
